This passage reports Specific Activity (cpm/µg) and OMPdecase activity of the DR1-URA3 reporter in yeast results from US6635429B1.

Assay [1] deals with bacterially-expressed hRAR-γ (human) (UniProt P13631). Put plainly: complementation gel retardation with bacterially-expressed hRAR-γ on β-RARE; cpm in the complex per µg of protein of the purification step.

B1: purified HeLa cell RBF (HAP-TSK) (receptor)
chain: MSWAARPPFLPQRHAAGQCGPVGVRKEMHCGVASRWRRRRPWLDPAAAAAAAVAGGEQQTPEPEPGEAGRDGMGDSGRDSRSPDSSSPNPLPQGVPPPSPPGPPLPPSTAPTLGGSGAPPPPPMPPPPLGSPFPVISSSMGSPGLPPPAPPGFSGPVSSPQINSTVSLPGGGSGPPEDVKPPVLGVRGLHCPPPPGGPGAGKRLCAICGDRSSGKHYGVYSCEGCKGFFKRTIRKDLTYSCRDNKDCTVDKRQRNRCQYCRYQKCLATGMKREAVQEERQRGKDKDGDGEGAGGAPEEMPVDRILEAELAVEQKSDQGVEGPGGTGGSGSSPNDPVTNICQAADKQLFTLVEWAKRIPHFSSLPLDDQVILLRAGWNELLIASFSHRSIDVRDGILLATGLHVHRNSAHSAGVGAIFDRVLTELVSKMRDMRMDKTELGCLRAIILFNPDAKGLSNPSEVEVLREKVYASLETYCKQKYPEQQGRFAKLLLRLPALRSIGLKCLEHLFFFKLIGDTPIDTFLMEMLEAPHQLA
Consider B1, for which the Specific Activity (cpm/µg) in assay [1] is 7.75e+06 cpm/µg.

B2: mRXR-α (receptor)
chain: MDTKHFLPLDFSTQVNSSSLNSPTGRGSMAVPSLHPSLGPGIGSPLGSPGQLHSPISTLSSPINGMGPPFSVISSPMGPHSMSVPTTPTLGFGTGSPQLNSPMNPVSSTEDIKPPLGLNGVLKVPAHPSGNMASFTKHICAICGDRSSGKHYGVYSCEGCKGFFKRTVRKDLTYTCRDNKDCLIDKRQRNRCQYCRYQKCLAMGMKREAVQEERQRGKDRNENEVESTSSANEDMPVEKILEAELAVEPKTETYVEANMGLNPSSPNDPVTNICQAADKQLFTLVEWAKRIPHFSELPLDDQVILLRAGWNELLIASFSHRSIAVKDGILLATGLHVHRNSAHSAGVGAIFDRVLTELVSKMRDMQMDKTELGCLRAIVLFNPDSKGLSNPAEVEALREKVYASLEAYCKHKYPEQPGRFAKLLLRLPALRSIGLKCLEHLFFFKLIGDTPIDTFLMEMLEAPHQAT
B2 displayed an OMPdecase activity of the DR1-URA3 reporter in yeast with mRXR-α (mouse) of 30 fold.
